Experimental data: the supplement of paper PMC5998384

Assays:
HeLa Kyoto [1] = assay: solubility in G1/S (NP-40 vs SDS abundance) (log2 ratio); higher = more soluble; settings: cell cycle stage: G1/S
HeLa Kyoto [2] = assay: melting temperature (median over replicates), in situ; higher = more thermally stable
HeLa Kyoto [3] = assay: solubility change mitosis vs G1/S (difference of NP-40 vs SDS log2 ratios) (log2 ratio difference); higher = more soluble in mitosis
HeLa Kyoto [4] = assay: thermal stability score vs G1/S (z-score of summed log2 fold changes over temperatures); higher = more thermally stable than in G1/S
[5] = cell cycle stage: early G1 (4.5 h after nocodazole release)
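For melting temperature (median over replicates), in situ in this document: HeLa Kyoto cells synchronized by double thymidine or nocodazole block, proteins quantified by TMT10plex mass spectrometry, three independent biological replicates.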
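For solubility change mitosis vs G1/S (difference of NP-40 vs SDS log2 ratios) in this document: synchronized HeLa Kyoto cells (double thymidine block for G1/S, nocodazole release for mitosis), protein amounts in NP-40 versus SDS lysates quantified by mass spectrometry, three biological replicates.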
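For solubility in G1/S (NP-40 vs SDS abundance) in this document: HeLa Kyoto cells arrested at G1/S by double thymidine block, proteins quantified by TMT10plex mass spectrometry in mild NP-40 versus SDS extracts, three biological replicates.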
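For thermal stability score vs G1/S (z-score of summed log2 fold changes over temperatures) in this document: synchronized HeLa Kyoto cells, proteins quantified by TMT10plex mass spectrometry, three biological replicates, mitosis taken 0.5 h after nocodazole release, G1/S directly after double thymidine block.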

Substance	solubility in G1/S (log2) (HeLa Kyoto [1])	melting temperature (HeLa Kyoto [2]; cell cycle stage: G1/S)	melting temperature (HeLa Kyoto [2]; cell cycle stage: mitosis)	solubility change mitosis (log2) (HeLa Kyoto [3])	thermal stability score (HeLa Kyoto [4]; [5])	thermal stability score (HeLa Kyoto [4]; cell cycle stage: mitosis)
MTSLMPGAGLLPIPTPNPLTTLGVSLSSLGAIPAAALDPNIATLGEIPQPPLMGNVDPSKIDEIRRTVYVGNLNSQTTTADQLLEFFKQVGEVKFVRMAGDETQPTRFAFVEFADQNSVPRALAFNGVMFGDRPLKINHSNNAIVKPPEMTPQAAAKELEEVMKRVREAQSFISAAIEPESGKSNERKGGRSRSHTRSKSRSSSKSHSRRKRSQSKHRSRSHNRSRSRQKDRRRSKSPHKKRSKSRERRKSRSRSHSRDKRKDTREKIKEKERVKEKDREKEREREKEREKEKERGKNKDRDKEREKDREKDKEKDREREREKEHEKDRDKEKEKEQDKEKEREKDRSKEIDEKRKKDKKSRTPPRSYNASRRSRSSSRERRRRRSRSSSRSPRTSKTIKRKSSRSPSPRSRNKKDKKREKERDHISERRERERSTSMRKSSNDRDGKEKLEKNSTSLKEKEHNKEPDSSVSKEVDDKDAPRTEENKIQHNGNCQLNEENLSTKTEAV [SREK1]	-0.849	48.9 °C	50.6 °C	0.262	1.86	4.67
MTTEKSLVTEAENSQHQQKEEGEEAINSGQQEPQQEESCQTAAEGDNWCEQKLKASNGDTPTHEDLTKNKERTSESRGLSRLFSSFLKRPKSQVSEEEGKEVESDKEKGEGGQKEIEFGTSLDEEIILKAPIAAPEPELKTDPSLDLHSLSSAETQPAQEELREDPDFEIKEGEGLEECSKIEVKEESPQSKAETELKASQKPIRKHRNMHCKVSLLDDTVYECVVEKHAKGQDLLKRVCEHLNLLEEDYFGLAIWDNATSKTWLDSAKEIKKQVRGVPWNFTFNVKFYPPDPAQLTEDITRYYLCLQLRQDIVAGRLPCSFATLALLGSYTIQSELGDYDPELHGVDYVSDFKLAPNQTKELEEKVMELHKSYRSMTPAQADLEFLENAKKLSMYGVDLHKAKDLEGVDIILGVCSSGLLVYKDKLRINRFPWPKVLKISYKRSSFFIKIRPGEQEQYESTIGFKLPSYRAAKKLWKVCVEHHTFFRLTSTDTIPKSKFLALGSKFRYSGRTQAQTRQASALIDRPAPHFERTASKRASRSLDGAAAVDSADRSPRPTSAPAITQGQVAEGGVLDASAKKTVVPKAQKETVKAEVKKEDEPPEQAEPEPTEAWKVEKTHIEVTVPTSNGDQTQKLAEKTEDLIRMRKKKRERLDGENIYIRHSNLMLEDLDKSQEEIKKHHASISELKKNFMESVPEPRPSEWDKRLSTHSPFRTLNINGQIPTGEGPPLVKTQTVTISDNANAVKSEIPTKDVPIVHTETKTITYEAAQTDDNSGDLDPGVLLTAQTITSETPSSTTTTQITKTVKGGISETRIEKRIVITGDADIDHDQVLVQAIKEAKEQHPDMSVTKVVVHQETEIADE [EPB41]	-0.0892	51.6 °C	51.6 °C	-0.0541	-0.449	-0.552
MTTSHQPQDRYKAVWLIFFMLGLGTLLPWNFFMTATQYFTNRLDMSQNVSLVTAELSKDAQASAAPAAPLPERNSLSAIFNNVMTLCAMLPLLLFTYLNSFLHQRIPQSVRILGSLVAILLVFLITAILVKVQLDALPFFVITMIKIVLINSFGAILQGSLFGLAGLLPASYTAPIMSGQGLAGFFASVAMICAIASGSELSESAFGYFITACAVIILTIICYLGLPRLEFYRYYQQLKLEGPGEQETKLDLISKGEEPRAGKEESGVSVSNSQPTNESHSIKAILKNISVLAFSVCFIFTITIGMFPAVTVEVKSSIAGSSTWERYFIPVSCFLTFNIFDWLGRSLTAVFMWPGKDSRWLPSLVLARLVFVPLLLLCNIKPRRYLTVVFEHDAWFIFFMAAFAFSNGYLASLCMCFGPKKVKPAEAETAGAIMAFFLCLGLALGAVFSFLFRAIV [SLC29A1]	-0.149	58.4 °C	61.1 °C	-0.151	1.53	0.495
MTTYSDKGAKPERGRFLHFHSVTFWVGNAKQATSFYCSKMGFEPLAYRGLETGSREVVSHVIKQGKIVFVLSSALNPWNKEMGDHLVKHGDGVKDIAFEVEDCDYIVQKARERGAKIMREPWVEQDKFGKVKFAVLQTYGDTTHTLVEKMNYIGQFLPGYEAPAFMDPLLPKLPKCSLEMIDHIVGNQPDQEMVSASEWYLKNLQFHRFWSVDDTQVHTEYSSLRSIVVANYEESIKMPINEPAPGKKKSQIQEYVDYNGGAGVQHIALKTEDIITAIRHLRERGLEFLSVPSTYYKQLREKLKTAKIKVKENIDALEELKILVDYDEKGYLLQIFTKPVQDRPTLFLEVIQRHNHQGFGAGNFNSLFKAFEEEQNLRGNLTNMETNGVVPGM [HPD]	0.143	53.6 °C	53.5 °C	-0.0296	1.14	1.46
MTVARPSVPAALPLLGELPRLLLLVLLCLPAVWGDCGLPPDVPNAQPALEGRTSFPEDTVITYKCEESFVKIPGEKDSVICLKGSQWSDIEEFCNRSCEVPTRLNSASLKQPYITQNYFPVGTVVEYECRPGYRREPSLSPKLTCLQNLKWSTAVEFCKKKSCPNPGEIRNGQIDVPGGILFGATISFSCNTGYKLFGSTSSFCLISGSSVQWSDPLPECREIYCPAPPQIDNGIIQGERDHYGYRQSVTYACNKGFTMIGEHSIYCTVNNDEGEWSGPPPECRGKSLTSKVPPTVQKPTTVNVPTTEVSPTSQKTTTKTTTPNAQATRSTPVSRTTKHFHETTPNKGSGTTSGTTRLLSGHTCFTLTGLLGTLVTMGLLT [CD55]	-0.786	63.5 °C	63.9 °C	-0.0285	-1.88	-1.77
MUC16	-0.172	53.5 °C	53.5 °C	-0.177	-2.6	-5.24
MVAPGSVTSRLGSVFPFLLVLVDLQYEGAECGVNADVEKHLELGKKLLAAGQLADALSQFHAAVDGDPDNYIAYYRRATVFLAMGKSKAALPDLTKVIQLKMDFTAARLQRGHLLLKQGKLDEAEDDFKKVLKSNPSENEEKEAQSQLIKSDEMQRLRSQALNAFGSGDYTAAIAFLDKILEVCVWDAELRELRAECFIKEGEPRKAISDLKAASKLKNDNTEAFYKISTLYYQLGDHELSLSEVRECLKLDQDHKRCFAHYKQVKKLNKLIESAEELIRDGRYTDATSKYESVMKTEPSIAEYTVRSKERICHCFSKDEKPVEAIRVCSEVLQMEPDNVNALKDRAEAYLIEEMYDEAIQDYETAQEHNENDQQIREGLEKAQRLLKQSQKRDYYKILGVKRNAKKQEIIKAYRKLALQWHPDNFQNEEEKKKAEKKFIDIAAAKEVLSDPEMRKKFDDGEDPLDAESQQGGGGNPFHRSWNSWQGFNPFSSGGPFRFKFHFN [DNAJC3]	0.202	53.3 °C	54.4 °C	-0.0724	5	3.84
MVAPVLETSHVFCCPNRVRGVLNWSSGPRGLLAFGTSCSVVLYDPLKRVVVTNLNGHTARVNCIQWICKQDGSPSTELVSGGSDNQVIHWEIEDNQLLKAVHLQGHEGPVYAVHAVYQRRTSDPALCTLIVSAAADSAVRLWSKKGPEVMCLQTLNFGNGFALALCLSFLPNTDVPILACGNDDCRIHIFAQQNDQFQKVLSLCGHEDWIRGVEWAAFGRDLFLASCSQDCLIRIWKLYIKSTSLETQDDDNIRLKENTFTIENESVKIAFAVTLETVLAGHENWVNAVHWQPVFYKDGVLQQPVRLLSASMDKTMILWAPDEESGVWLEQVRVGEVGGNTLGFYDCQFNEDGSMIIAHAFHGALHLWKQNTVNPREWTPEIVISGHFDGVQDLVWDPEGEFIITVGTDQTTRLFAPWKRKDQSQVTWHEIARPQIHGYDLKCLAMINRFQFVSGADEKVLRVFSAPRNFVENFCAITGQSLNHVLCNQDSDLPEGATVPALGLSNKAVFQGDIASQPSDEEELLTSTGFEYQQVAFQPSILTEPPTEDHLLQNTLWPEVQKLYGHGYEIFCVTCNSSKTLLASACKAAKKEHAAIILWNTTSWKQVQNLVFHSLTVTQMAFSPNEKFLLAVSRDRTWSLWKKQDTISPEFEPVFSLFAFTNKITSVHSRIIWSCDWSPDSKYFFTGSRDKKVVVWGECDSTDDCIEHNIGPCSSVLDVGGAVTAVSVCPVLHPSQRYVVAVGLECGKICLYTWKKTDQVPEINDWTHCVETSQSQSHTLAIRKLCWKNCSGKTEQKEAEGAEWLHFASCGEDHTVKIHRVNKCAL [ELP2]	-0.174	51.7 °C	51.4 °C	-0.181	-0.251	-1.61
MVDKKLVVVFGGTGAQGGSVARTLLEDGTFKVRVVTRNPRKKAAKELRLQGAEVVQGDQDDQVIMELALNGAYATFIVTNYWESCSQEQEVKQGKLLADLARRLGLHYVVYSGLENIKKLTAGRLAAAHFDGKGEVEEYFRDIGVPMTSVRLPCYFENLLSHFLPQKAPDGKSYLLSLPTGDVPMDGMSVSDLGPVVLSLLKMPEKYVGQNIGLSTCRHTAEEYAALLTKHTRKVVHDAKMTPEDYEKLGFPGARDLANMFRFYALRPDRDIELTLRLNPKALTLDQWLEQHKGDFNLL [NMRAL1]	0.417	48.9 °C	49.3 °C	-0.127	4.25	3.59
MVDPVGFAEAWKAQFPDSEPPRMELRSVGDIEQELERCKASIRRLEQEVNQERFRMIYLQTLLAKEKKSYDRQRWGFRRAAQAPDGASEPRASASRPQPAPADGADPPPAEEPEARPDGEGSPGKARPGTARRPGAAASGERDDRGPPASVAALRSNFERIRKGHGQPGADAEKPFYVNVEFHHERGLVKVNDKEVSDRISSLGSQAMQMERKKSQHGAGSSVGDASRPPYRGRSSESSCGVDGDYEDAELNPRFLKDNLIDANGGSRPPWPPLEYQPYQSIYVGGMMEGEGKGPLLRSQSTSEQEKRLTWPRRSYSPRSFEDCGGGYTPDCSSNENLTSSEEDFSSGQSSRVSPSPTTYRMFRDKSRSPSQNSQQSFDSSSPPTPQCHKRHRHCPVVVSEATIVGVRKTGQIWPNDGEGAFHGDADGSFGTPPGYGCAADRAEEQRRHQDGLPYIDDSPSSSPHLSSKGRGSRDALVSGALESTKASELDLEKGLEMRKWVLSGILASEETYLSHLEALLLPMKPLKAAATTSQPVLTSQQIETIFFKVPELYEIHKEFYDGLFPRVQQWSHQQRVGDLFQKLASQLGVYRAFVDNYGVAMEMAEKCCQANAQFAEISENLRARSNKDAKDPTTKNSLETLLYKPVDRVTRSTLVLHDLLKHTPASHPDHPLLQDALRISQNFLSSINEEITPRRQSMTVKKGEHRQLLKDSFMVELVEGARKLRHVFLFTDLLLCTKLKKQSGGKTQQYDCKWYIPLTDLSFQMVDELEAVPNIPLVPDEELDALKIKISQIKNDIQREKRANKGSKATERLKKKLSEQESLLLLMSPSMAFRVHSRNGKSYTFLISSDYERAEWRENIREQQKKCFRSFSLTSVELQMLTNSCVKLQTVHSIPLTINKEDDESPGLYGFLNVIVHSATGFKQSSNLYCTLEVDSFGYFVNKAKTRVYRDTAEPNWNEEFEIELEGSQTLRILCYEKCYNKTKIPKEDGESTDRLMGKGQVQLDPQALQDRDWQRTVIAMNGIEVKLSVKFNSREFSLKRMPSRKQTGVFGVKIAVVTKRERSKVPYIVRQCVEEIERRGMEEVGIYRVSGVATDIQALKAAFDVNNKDVSVMMSEMDVNAIAGTLKLYFRELPEPLFTDEFYPNFAEGIALSDPVAKESCMLNLLLSLPEANLLTFLFLLDHLKRVAEKEAVNKMSLHNLATVFGPTLLRPSEKESKLPANPSQPITMTDSWSLEVMSQVQVLLYFLQLEAIPAPDSKRQSILFSTEV [BCR]	-0.109	49 °C	49.2 °C	-0.114	0.827	1.59
MVEDELALFDKSINEFWNKFKSTDTSCQMAGLRDTYKDSIKAFAEKLSVKLKEEERMVEMFLEYQNQISRQNKLIQEKKDNLLKLIAEVKGKKQELEVLTANIQDLKEEYSRKKETISTANKANAERLKRLQKSADLYKDRLGLEIRKIYGEKLQFIFTNIDPKNPESPFMFSLHLNEARDYEVSDSAPHLEGLAEFQENVRKTNNFSAFLANVRKAFTATVYN [SPC25]	0.585	49.5 °C	49.6 °C	0.0937	-0.881	-0.275
